One block for each binder: values may come before it.
How the values were obtained:
[1] = biological target: T1, human RON (recepteur d'origine Nantaise, MST1R), full length on cells (human, UniProt Q04912 25-1400); experiment: flow cytometry, NIH/3T3 cells transfected with human RON, hybridoma supernatant
T1 construct: Over-expressed on transfected NIH/3T3 cells, or native on BxPC-3 and MDA-MB-453 cells; also called native human RON
From the text: NIH/3T3 cells transfected with human or macaque RON or empty vector, were dissociated with trypsin and stained at 1.6×10⁵ cells/sample on ice with hybridoma supernatants or purified antibodies diluted in Staining Buffer (2% FBS in Dulbecco's PBS). Unlabeled murine IgG (SouthernBiotech, Birmingham, Ala.) and the DX07 anti-RON β-chain antibody (Santa Cruz Biotechnology, Santa Cruz, Calif.) were employed as negative and positive controls respectively. Murine antibodies were detected with R-PE-conjugated goat anti-mouse IgG (SouthernBiotech). Samples were analyzed on a BD FACSCalibur flow cytometer fitted with an HTS using PlateManager and CellQuest Pro software (BD Biosciences, San Jose, Calif.). Data was plotted using FlowJo software (Tree Star, Ashland, Oreg.).
NIH/3T3 cells transfected with empty vector (dashed), human RON (dotted) or Macaca mulatta RON (solid) were stained with secondary antibody alone (FIG. 1A), 1 mg/ml murine IgG (FIG. 1B), 1 mg/ml DX07 anti-RON antibody (FIG. 1C), RON-e01 anti-RON hybridoma supernatant (FIG. 1D) or RON-f01 anti-RON hybridoma supernatant (FIG. 1E).

[2] = biological target: T2, recombinant RON Sema-PSI protein (R&D Systems #1947-MS) (human, UniProt Q04912 25-571); experiment: ELISA, plate coated with 1 µg/ml recombinant RON Sema-PSI
T2 construct: Bought protein, expressed in NS0 cells; not shown: carboxyl-terminal histidine tag
Procedure: (§1) To determine binding of murine antibodies to the Sema-PSI domain of RON, 96-well EIA/RIA microplates were coated with 1 μg/ml recombinant RON Sema-PSI (R&D Systems #1947-MS, Minneapolis, Minn.). This protein includes the Sema and PSI domains of human RON (Glu 25-Leu 571; see SEQ ID NO:784) coupled to a carboxyl-terminal histidine tag and expressed in the NS0 mouse myeloma cell line. Plates were blocked with 10% FBS in DPBS prior to adding hybridoma supernatants diluted […] in serum diluent. Murine antibodies bound to recombinant RON Sema-PSI were detected as described above.
(§2) “Diluent only” samples represent background binding in each assay when only serum diluent was run as the sample. As a positive control for IgG measurement and recombinant RON Sema-PSI binding, 250 ng/ml of an anti-human RON antibody (R&D Systems #MAB691, Minneapolis, Minn.) was tested in both ELISAs.

RON Sema-PSI-AFH protein [3] = biological target: T3, RON Sema-PSI-AFH protein (human, UniProt Q04912 25-568); experiment: SPR (Biacore T100); Interceptor captured by immobilized anti-human Fc, soluble RON Sema-PSI-AFH flowed over
T3 construct: Produced in CHOK1SV cells; also called soluble RON Sema-PSI-AFH; not shown: c-terminal tag including avidin, 3xFLAG and 6x histidine tags
T3 chain: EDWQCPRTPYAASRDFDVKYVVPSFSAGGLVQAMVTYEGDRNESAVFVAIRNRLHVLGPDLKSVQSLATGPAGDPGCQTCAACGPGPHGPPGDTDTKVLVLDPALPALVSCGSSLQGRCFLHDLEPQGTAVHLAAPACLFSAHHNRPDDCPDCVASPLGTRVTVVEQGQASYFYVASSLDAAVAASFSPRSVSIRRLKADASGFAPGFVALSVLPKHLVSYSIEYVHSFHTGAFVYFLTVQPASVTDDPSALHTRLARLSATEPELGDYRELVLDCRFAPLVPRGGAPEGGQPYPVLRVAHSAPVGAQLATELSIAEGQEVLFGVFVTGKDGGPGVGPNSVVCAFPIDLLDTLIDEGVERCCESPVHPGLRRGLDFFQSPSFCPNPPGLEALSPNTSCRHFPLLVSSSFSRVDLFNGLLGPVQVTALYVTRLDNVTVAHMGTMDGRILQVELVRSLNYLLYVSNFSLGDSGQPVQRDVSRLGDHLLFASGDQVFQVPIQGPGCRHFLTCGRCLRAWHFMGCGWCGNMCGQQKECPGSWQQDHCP
Procedure: (§3) The binding kinetics of RON-f murine antibody, SMIP and Interceptor to soluble RON Sema-PSI-AFH were determined using a Biacore T100 (GE Healthcare, Piscataway, N.J.). Anti-RON murine antibody was captured using immobilized anti-mouse Fc polyclonal antibody while the SMIP and Interceptor were captured by anti-human Fc monoclonal antibody. The capture antibodies, both from GE Healthcare, were covalently conjugated to a carboxylmethyl dextran surface (CM4) via amines using N-ethyl-N′-(3-dimethylaminopropyl)-carbodiimide hydrochloride and N-hydroxysuccinimide. The unoccupied sites of the activated surface were blocked by ethanolamine. […] During each cycle, a single concentration of soluble RON Sema-PSI-AFH was injected and then allowed to dissociate. At the end of each cycle, the surface was regenerated gently using 3M MgCl₂ which dissociates protein bound to the capture antibodies. Signal associated with binding to the reference cell was used to subtract for bulk refractive changes and blank (buffer-only) injections were used to correct for drift and system noise.
(§4) Kinetic parameters and affinities were determined using BIAevaluation software. The kₐ (M⁻¹s⁻¹) and kd (s⁻¹) rates of the interaction were used to calculate the affinity constant, KD (M), of the antibody/receptor interaction. The KD is defined as the ratio of the kd and kₐ constants (kd/kₐ). The RON-f01 murine antibody was tested in a single experiment while the RON-f02 SMIP and RON-f03 Interceptor molecules were each tested in three independent experiments. RON-f molecules were captured on a sensor chip with immobilized anti-Fc while soluble RON Sema-PSI-AFH protein was flowed over the surface at varying concentrations.

[4] = biological target: T2, recombinant RON Sema-PSI protein (R&D …); experiment: ELISA, plate coated with 1 µg/ml recombinant RON Sema-PSI, hybridoma supernatants
Procedure: as §1, §2

RON Sema-PSI-AFH protein [5] = biological target: T3, RON Sema-PSI-AFH protein; experiment: SPR (Biacore T100); antibody captured by immobilized anti-mouse Fc, soluble RON Sema-PSI-AFH flowed over
Procedure: as §3, §4

binding result [1]: binds
binding result [2]: no binding
B1: RON-e01 murine antibody (11H09 hybridoma) (antibody, V domains shown)
VH: QVQLQQSGAELAKPGASVKMSCKSSGYTFTSYWIHWVKERPGQGLEWIGYIYPTTGYTESNQKFKDKATLTADKSSSTAYMQLSSLTSEDSAVYYCFLLRPWYFDVWGAGTTVTVSS
VL: DIQMTQSPSSLSASLGERVSLTCRASQDIGSSLSWLQQEPDGTIKRLIYSTSSLDSGVPKRFSGSRSGSDYSLTISSLESEDFVDYYCLQYASSPWTFGGGTKLEIK
notes: Murine monoclonal antibody from a hybridoma, used as supernatant or purified; also called RON-e01 Antibody

Kd (RON Sema-PSI-AFH protein [3]): 0.156 nM
koff (RON Sema-PSI-AFH protein [3]): 6.78e-05 s⁻¹
kon (RON Sema-PSI-AFH protein [3]): 434000 M⁻¹ s⁻¹
B2: RON-f03 Interceptor (4C04 scFv, Interceptor Pair 2) (other)
chain 1: DIQMTQSPASQSASLGESVTITCLASQTIGTWLAWYQQKPGKSPQLLIYAATSLADGVPSRFSASGSGTKFSFKIDSLQSEDFVSYYCQQLYNTPWTFGGGTKLEIKGGGGSGGGGSGGGGSQIQLQQSGPELVKPGTSVKISCKASDYTLTDFYMNWVRQKPGQGLEWIGRIYPGTDKTRYNEKFRDKAILTVDTSSSTAYMQLSSLTSEDTAVYFCARSAYYGNYVAMDYWGQGTSVTVSSSASTKGPSVFPLAPSSKSTSGGTAALGCLVKDYFPEPVTVSWNSGALTSGVHTFPAVLQSSGLYSLSSVVTVPSSSLGTQTYICNVNHKPSNTKVDKKVRTEPKSSDKTHTCPPCPSGAPELLGGPSVFLFPPKPKDTLMISRTPEVTCVVVDVSHEDPEVKFNWYVDGVEVHNAKTKPREEQYNSTYRVVSVLTVLHQDWLNGKEYKCKVSNKALPAPIEKTISKAKGQPREPQVYTLPPSRDELTKNQVSLTCLVKGFYPSDIAVEWESNGQPENNYKTTPPVLDSDGSFFLYSKLTVDKSRWQQGNVFSCSVMHEALHNHYTQKSLSLSPGKSRTVAAPSVFIFPPSDEQLKSGTASVVCLLNNFYPREAKVQWKVDNALQSGNSQESVTEQDSKDSTYSLSSTLTLSKADYEKHKVYACEVTHQGLSSPVTKSFNRGE
chain 2: TVAAPSVFIFPPSDEQLKSGTASVVCLLNNFYPREAKVQWKVDNALQSGNSQESVTEQDSKDSTYSLSSTLTLSKADYEKHKVYACEVTHQGLSSPVTKSFNRGERTEPKSSDKTHTCPPCPSGAPELLGGPSVFLFPPKPKDTLMISRTPEVTCVVVDVSHEDPEVKFNWYVDGVEVHNAKTKPREEQYNSTYRVVSVLTVLHQDWLNGKEYKCKVSNKALPAPIEKTISKAKGQPREPQVYTLPPSRDELTKNQVSLTCLVKGFYPSDIAVEWESNGQPENNYKTTPPVLDSDGSFFLYSKLTVDKSRWQQGNVFSCSVMHEALHNHYTQKSLSLSPGKSRASTKGPSVFPLAPSSKSTSGGTAALGCLVKDYFPEPVTVSWNSGALTSGVHTFPAVLQSSGLYSLSSVVTVPSSSLGTQTYICNVNHKPSNTKVDKKV
notes: also called RON-f03 2nd generation interceptor

binding result [4]: binds
binding result [1]: binds
Kd (RON Sema-PSI-AFH protein [5]): 0.15 nM
koff (RON Sema-PSI-AFH protein [5]): 9.49e-05 s⁻¹
kon (RON Sema-PSI-AFH protein [5]): 632000 M⁻¹ s⁻¹
B3: RON-f01 murine antibody (4C04 hybridoma) (antibody, V domains shown)
VH: QIQLQQSGPELVKPGTSVKISCKASDYTLTDFYMNWVRQKPGQGLEWIGRIYPGTDKTRYNEKFRDKAILTVDTSSSTAYMQLSSLTSEDTAVYFCARSAYYGNYVAMDYWGQGTSVTVSL
VL: DIQMTQSPASQSASLGESVTITCLASQTIGTWLAWYQQKPGKSPQLLIYAATSLADGVPSRFSASGSGTKFSFKIDSLQSEDFVSYYCQQLYNTPWTFGGGTKLEIK
notes: Murine monoclonal antibody from a hybridoma; also called RON-f01 Antibody
